# Measurements from patent US20040265915A1, “Method to identify regulators of cellular activation using Bcl10” (priority 2003, published 2004).
# B1: conalbumin: conalbumin protein, specific antigen loaded on CH12 B cells to stimulate D10 T cells (protein, UniProt P02789 20-705, looked up)
# Ovotransferrin: APPKSVIRWCTISSPEEKKCNNLRDLTQQERISLTCVQKATYLDCIKAIANNEADAISLDGGQAFEAGLAPYKLKPIAAEVYEHTEGSTTSYYAVAVVKKGTEFTVNDLQGKTSCHTGLGRSAGWNIPIGTLLHRGAIEWEGIESGSVEQAVAKFFSASCVPGATIEQKLCRQCKGDPKTKCARNAPYSGYSGAFHCLKDGKGDVAFVKHTTVNENAPDQKDEYELLCLDGSRQPVDNYKTCNWARVAAHAVVARDDNKVEDIWSFLSKAQSDFGVDTKSDFHLFGPPGKKDPVLKDLLFKDSAIMLKRVPSLMDSQLYLGFEYYSAIQSMRKDQLTPSPRENRIQWCAVGKDEKSKCDRWSVVSNGDVECTVVDETKDCIIKIMKGEADAVALDGGLVYTAGVCGLVPVMAERYDDESQCSKTDERPASYFAVAVARKDSNVNWNNLKGKKSCHTAVGRTAGWVIPMGLIHNRTGTCNFDEYFSEGCAPGSPPNSRLCQLCQGSGGIPPEKCVASSHEKYFGYTGALRCLVEKGDVAFIQHSTVEENTGGKNKADWAKNLQMDDFELLCTDGRRANVMDYRECNLAEVPTHAVVVRPEKANKIRDLLERQEKRFGVNGSEKSKFMMFESQNKDLLFKDLTKCLFKVREGTTYKEFLGDKFYTVISSLKTCNPSDILQMCSFLEGK
# Tested on: Bcl10-YFP POLKADOTS formation
# Test: Bcl10-YFP POLKADOTS formation in antigen-stimulated D10 T cells, fluorescence microscopy
# Format: cell-based, murine
# Conditions: D10 T cells with conalbumin-loaded CH12 B cells (100 μg/ml), fixed after 20 min, >200 T cells counted, FIG. 4
# Description: D10-IL2 (henceforth referred to as D10) is an IL-2 dependent subclone of the CD4^+ T cell clone D10 (16), maintained as described (17). Primary T cell blasts were prepared by stimulation of spleen and lymph node cells with 100 μg/ml plate-bound anti-TCRP for 48 hr, with IL-2 added for the final 24 hr of stimulation. CH12H-2^k B cells and CHb H-2^b B cells (18) were maintained as described previously (17).
# Murine PKCθ was fused to a C-terminal linker (GRVELGR; SEQ ID NO:7) followed by GFP or CFP (19), modified by mutations that improve folding at 37° C. (20). Two I.M.A.G.E. expressed sequence tag (EST) clones encoding murine Bcl10 were purchased (2123397 and 3026026; ResGen). Clone 3026026 was used for PCR amplification of Bc 10, adding the C-terminal linker GR, which was then fused to the previously described modified YFP gene (17). […]
# The inventors next examined whether formation of Bcl10 POLKADOTS is PKC-dependent (FIG. 4 and FIG. 5). […] Cells were fixed after 20 minutes and examined by fluorescence microscopy. For each group, >200 T cells were counted, and percentages with and without POLKADOTS were determined.
# CH12 B cells that had been pre-incubated with no antigen or with 250 μg/ml conalbumin protein were then added. Cells were fixed after 30 min and examined by fluorescence microscopy. […]
molecule,measurement,value
B1,cells with Bcl10-YFP POLKADOTS,over 80%
